According to the RNAGym collection of RNA variant scans (doi:10.1073/pnas.2313332121):

B1: TPR t1 (parent)
chain: GACCAAUCUGCCCUCAGAGCUCGAGAACAUCUUCGGAUGCAGAGGAGGCAGGCUUCGGUGGCGCGAUAGCGCCAACGUCCUCAACCUCCAAUGCAUCCCACCACAUGAUGAUGCCUGAAGAGCCUUGGUUUUUUG

Variants of: B1
Assay: polymerase ribozyme fitness, log enrichment relative to wild type (log ratio); higher = more active; in vitro selection for triplet polymerase activity
Outline: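 Both subunits of a heterodimeric triplet polymerase ribozyme were given their own mutant library, built by PCR and transcribed. Each library was annealed with a biotinylated primer, the partner subunit and triplets, incubated frozen at −7 °C, and its extended constructs gel-excised, captured on streptavidin beads and amplified by RT-PCR, all in one round done in triplicate. Fitness is the logarithm of genotype enrichment relative to wild-type enrichment, with replicates averaged by inverse-variance weighting. That logarithm is base 2, and Illumina-sequenced genotypes needed ≥10 input reads and ≥1 read per output.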

Variant	polymerase ribozyme fitness (log ratio)
C62A G93U C101G	-5.19
C62U U125A	-1.11
G60U U87A C123G	1.56
G61A C97U C114U	-2.43
G61C C94U	-1.25
G61C C94G	-2.92
C62U G93A	-0.42
C62G C124A	-0.74
C62G C124U	0.784
G61A C64A	-6.82
G60C A121C U130A	0.0713
G61C A83C C89U	-2.95
G61C G93U	-2.81
G61U A83U A90G	0.371
G60A U116G	-2.22
G61U C98A C99A	-5.19
G61U A105U	-1.36
G61U A105C	-1.99
G61U A84U	-0.0265
C62U C97G U132A	-3.9
G60U G61U C104A	-5.16

Variant	polymerase ribozyme fitness (log ratio)
C62G A83U U96A	-4.56
G61C C85U U116A C123U U129A	-6.64
C62A U78C G117A	-3.04
G61U C99A	-5.7
C62A U116G G120C U129A	-3.57
G61C G110U	-3.71
G61A C73A C123A	-0.908
G60C G110U	-1.71
C62G U106C	-2.05
G61A G127C	-0.956
G61U A103C	-5.47
G60C C79A C88G	-2.51
G61A A100U	-0.262
G61C G107C C114A A119U	-6.57
G61C U109A	-4.34
G61U C82G A91C U112C	0.876
G61U C97A	-3.26
G61U G135A	-0.268
G60U G117U	-1.65
G61U A83C	-0.327
G61A C70U G120U C123G	-0.0638

Variant	polymerase ribozyme fitness (log ratio)
C62G A83U A84U	-2.65
G61U C104U	0.264
C62A C82U	-0.465
G61C C94U U130A U131G	-3.54
C62A G77U C115G	-2.95
G61U C102U	-1.65
G60U C97A C104U U126G	-5.83
G61A C89A	-1.25
G61C C76U	-3.1
G60C U96C C104U G117A	-2.83
G61A C72U G77U	-0.134
G61A U109A	-5.19
G61A U109C	-2.02
G60U A90U	-1.1
G60C C88U G117A	-1.68
G60U C80U C123A	-1.11
C62A C94U	-1.76
C62U C104G	-7
G61U C97A C123A	-4.17
G60U A84U C102A U134G	-2.03
G60C C102U	-2.87

Variant	polymerase ribozyme fitness (log ratio)
G61A C88G	-0.136
G61U U81G C86U G120U	-2.64
G61U G107A	-5.22
C62U C73A G113A	-1.96
G61U U81A	-0.596
G60U C89A A118G	-1.39
G61U C86A A119C G120A	-2.79
G61A G117U	-2.02
G61A	0.0725
G61U	0.14
G61C	-1.63
G61C G93U U130A	-3.65
G60C U81A A83C	-3.92
G61C C124G	-0.476
C62U C86U	-0.567
C62U C86A	-0.731
C62A C101A C114A	-3.81
C62A U109G G110U	-4.7
G61U C97G G113U	-5.53
G61A C89G C101G A121G	-0.932
G60A G113C G135U	-5.16
